Experimental findings from patent US20210079060A1 (ALETA BIOTHERAPEUTICS, published 2021) are described below.

Where a chain is given by its changes, count along the chain named. Values joined by “and” are separate entries in the source; they are usually repeats but may differ in a detail not shown here. Equal entries are not always repeated. Where two headings read alike, the source gives them in different places.

Broadly, the EC50 is the concentration that produces a half-maximal response. A high value points to a need for much substance.

The target in assay [1] is T1, Clec12A (human, UniProt Q5QGZ9 1-265).
T1 construct: whole, on cells; also called CLL-1; MICL
T1 sequence (looked up): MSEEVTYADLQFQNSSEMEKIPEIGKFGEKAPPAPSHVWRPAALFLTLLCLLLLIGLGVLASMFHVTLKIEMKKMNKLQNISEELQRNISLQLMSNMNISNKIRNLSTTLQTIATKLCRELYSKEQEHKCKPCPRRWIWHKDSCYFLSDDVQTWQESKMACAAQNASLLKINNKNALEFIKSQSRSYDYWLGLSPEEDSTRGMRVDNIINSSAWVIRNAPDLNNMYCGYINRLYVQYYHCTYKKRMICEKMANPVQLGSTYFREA
Kind of assay: sandwich ELISA: coated with FMC63, construct titrated (x-axis ug/ml), followed by Clec12A-bio, detected by HRP-SA. (ELISA stands for enzyme-linked immunosorbent assay.)

Assay [2] has as its target T1, Clec12A. Kind of assay: binding to U937 cells; supernatant.
Assay [3] deals with T1, Clec12A. In words: binding to U937 cells; supernatant; MW = 46kDa.
The target of assay [4] is T1, Clec12A. In words: sandwich ELISA: coated with FMC63, construct titrated (x-axis ug/ml), followed by Clec12A-bio, detected by HRP-SA. The source holds these as a separate data set.
A further assay addresses T2, EGFR (UniProt P00533 25-1210, limits assumed).
T2 construct: whole, on cells; also called EGFR positive cells; EGFR positive H292 cells
Kind of assay: binding to EGFR positive cells (data not shown).

B1: #290 (VHH)
fusion protein, single chain: PEEPLVVKVEEGDTAVLPCLKGTSDGPTQQLTWSRESPLKPFLKYSLGVPGLGVHVRPDAISVVIRNVSQQMGGFYLCQPGPPSEKAWQPGWTVNVEGSGELFRWNVSDLGGLGCGLKNRSSEGPSSPSGKLMSPKLYVWAKDRPEIWEGEPPCLPPRDSLNQSLSQDLTMAPGSTLWLSCGVPPDSVSRGPLSWTHVHPKGPKSLLSLELKDDRPAREMIVDETGLLLPRATAQDAGKWYCSRGNVTTSYHLEITARPVKAHSDLRTGGWKGGGGSGGGGSGGGGSGGGGSQVQLQESGGGLVQPGGSLRLSCAASGFTFNSYAMTWVRQAPGKGLEWVSDINSGGGSTNYADSVKGRFTISRDNAKNTLYLQMNSLKPEDTAVYYCATELRGSDYYRGPIREYAYWGQGTLVTVSSTSGPGGQGAEQKLISEEDLGAHHHHHHGAS
notes: also called construct #290; CD19 mutant #2-G4Sx4-anti CLEC12a VHH 1H1-His
In the case of B1, in the assay with Clec12A [1], the “C of the 4-P fit (midpoint)” value amounted to 0.037 µg/mL; the EC50 was 0.037 µg/mL and 0.796 nM.

B2: CD19 mutant #2-G4Sx4-anti CLEC12a VHH 2H3-myc-His (VHH)
chain: PEEPLVVKVEEGDTAVLPCLKGTSDGPTQQLTWSRESPLKPFLKYSLGVPGLGVHVRPDAISVVIRNVSQQMGGFYLCQPGPPSEKAWQPGWTVNVEGSGELFRWNVSDLGGLGCGLKNRSSEGPSSPSGKLMSPKLYVWAKDRPEIWEGEPPCLPPRDSLNQSLSQDLTMAPGSTLWLSCGVPPDSVSRGPLSWTHVHPKGPKSLLSLELKDDRPAREMIVDETGLLLPRATAQDAGKWYCSRGNVTTSYHLEITARPVKAHSDLRTGGWKGGGGSGGGGSGGGGSGGGGSQVQLQESGGGLVQAGGSLRLSCVASGSIRSINVMGWYRQAPGKQRELVAACASDGNTYYADSVKGRFTISRDNAEKTVYLQMNNLKPDDTAVYYCDANSRGNYYSGQGTQVTVSSTSGPGGQGAEQKLISEEDLGAHHHHHHGAS
notes: CD19 variant-VHH fusion
For the molecule B2, the EC50 was 0.224 µg/mL in the assay with Clec12A [2]; 4.87 nM with Clec12A [3]; 0.0201 µg/mL and 0.432 nM with Clec12A [1]. In addition, the “C of the 4-P fit (midpoint)” value with Clec12A [1] worked out at 0.0201 µg/mL.

B3: #333 (VHH)
fusion protein, single chain: B2 chain with A306V, G308E, A316V, S319D, I320T, V325L, Q402L
notes: also called CD19 mutant #2-G4Sx4-anti CLEC12a VHH 1A10-His
Take B3: in the assay with Clec12A [1], the “C of the 4-P fit (midpoint)” value turned out to be 0.0106 µg/mL; the EC50 is 0.0106 µg/mL and 0.228 nM.

B4: CD19 mutant #2-G4Sx4-anti CLEC12a VHH 1G6-myc-His (VHH)
chain: PEEPLVVKVEEGDTAVLPCLKGTSDGPTQQLTWSRESPLKPFLKYSLGVPGLGVHVRPDAISVVIRNVSQQMGGFYLCQPGPPSEKAWQPGWTVNVEGSGELFRWNVSDLGGLGCGLKNRSSEGPSSPSGKLMSPKLYVWAKDRPEIWEGEPPCLPPRDSLNQSLSQDLTMAPGSTLWLSCGVPPDSVSRGPLSWTHVHPKGPKSLLSLELKDDRPAREMIVDETGLLLPRATAQDAGKWYCSRGNVTTSYHLEITARPVKAHSDLRTGGWKGGGGSGGGGSGGGGSGGGGSQVQLQQSGGGLVQAGGSLRLSCAASGSIFAINEINLMGWYRQAPGKQRELVAACASDGNTYYADSVKGRFTISRDNAEKTVYLQMNNLKPDDTAVYYCDANSRGNYYSGQGTQVTVSSTSGPGGQGAEQKLISEEDLGAHHHHHHGAS
notes: CD19 variant-VHH fusion
For B4, the EC50 with Clec12A [2] was 0.157 µg/mL; with Clec12A [3] it was 3.4 nM; with Clec12A [1] it was 0.0113 µg/mL and 0.243 nM. In the assay with Clec12A [1], the “C of the 4-P fit (midpoint)” value was determined as 0.0113 µg/mL.

B5: CD19 mutant #2-G4Sx4-anti CLEC12a VHH 2F5-myc-His (VHH)
chain: B4 chain with V304A, A306T, R311I
notes: CD19 variant-VHH fusion
For B5, the EC50 in the assay with Clec12A [2] is 0.151 µg/mL; in the assay with Clec12A [3], 3.29 nM; with Clec12A [1] it was 0.0098 µg/mL and 0.21 nM. Moreover, in the assay with Clec12A [1], the “C of the 4-P fit (midpoint)” value came to 0.00983 µg/mL.

B6: #334 (VHH)
fusion protein, single chain: B4 chain with Q298E
notes: also called CD19 mutant #2-G4Sx4-anti CLEC12a VHH 1B1-His
Turning to B6, in the assay with Clec12A [1], the “C of the 4-P fit (midpoint)” value was 0.0112 µg/mL; the EC50 is 0.0112 µg/mL and 0.241 nM.

B7: #335 (VHH)
fusion protein, single chain: B4 chain with Q297V, Q298E, Q405L
notes: also called CD19 mutant #2-G4Sx4-anti CLEC12a VHH 2C8-His
As for B7, in the assay with Clec12A [1], the “C of the 4-P fit (midpoint)” value was 0.0108 µg/mL; the EC50 is 0.0108 µg/mL and 0.232 nM.

B8: anti-CLEC12a VHH 1B12-G4Sx4-CD19 D1+2 C term mutant #2-His (VHH)
VHH: QVQLQASGGGLVQAGGSLRLSCAASGSIFAINEINLMGWYRQAPGKQRELVAACASDGNTYYADSVKGRFTISRDNAEKTVYLQMNNLKPDDTAVYYCDANSRGNYYSGQGTQVTVSS
With B8, in the assay with Clec12A [4], the “C of the 4-P fit (midpoint)” value is 0.015 µg/mL; the EC50 is 0.015 µg/mL and 0.323 nM.

B9: #329 (VHH)
VHH: B8 VHH with A6Q, V12A, A14T, R19I
notes: also called anti CLEC12a VHH 2F5-G4Sx4-CD19 C-term mutant #2-His
For B9, in the assay with Clec12A [4], the “C of the 4-P fit (midpoint)” value came to 0.0107 µg/mL; the EC50 is 0.0107 µg/mL and 0.23 nM.

B10: anti-CLEC12a VHH 1B1-G4Sx4-CD19 D1+2 C term mutant #2-His (VHH)
VHH: B8 VHH with A6E
With B10, in the assay with Clec12A [4], the “C of the 4-P fit (midpoint)” value stood at 0.00648 µg/mL; the half-maximal effective concentration (EC50) was 0.0065 µg/mL and 0.14 nM.

B11: anti-CLEC12a VHH 1A10-CD19 D1+2 C term mutant #2 (VHH)
VHH: QVQLQESGGGLVQVGESLRLSCVVSGDTRSINLMGWYRQAPGKQRELVAACASDGNTYYADSVKGRFTISRDNAEKTVYLQMNNLKPDDTAVYYCDANSRGNYYSGQGTLVTVSS
For B11, in the assay with Clec12A [4], the “C of the 4-P fit (midpoint)” value turned out to be 0.00751 µg/mL; the EC50 is 0.0075 µg/mL and 0.161 nM.

B12: CD19 ECD N term mutant#2-EGFR Fn3 (designed binder)
chain: PEEPLVVKVEEGDTAVLPCLKGTSDGPTQQLTWSRESPLKPFLKYSLGVPGLGVHVRPDAISVVIRNVSQQMGGFYLCQPGPPSEKAWQPGWTVNVEGSGELFRWNVSDLGGLGCGLKNRSSEGPSSPSGKLMSPKLYVWAKDRPEIWEGEPPCLPPRDSLNQSLSQDLTMAPGSTLWLSCGVPPDSVSRGPLSWTHVHPKGPKSLLSLELKDDRPAREMIVDETGLLLPRATAQDAGKWYCSRGNVTTSYHLEITARPVKAHSDLRTGGWKGGGGSGGGGSGGGGSGGGGSVSDVPRDLEVVAATPTSLLISWFDYAVTYYRITYGETGGNSPVQEFTVPGWISTATISGLKPGVDYTITVYAVTDNSHWPFRSTPISTNYRTEIDKPPQHHHHHH
notes: Fusion protein; also called CD19-Fn3/EGFR
In the case of B12, in the assay with EGFR, the binding result is listed as “binds”.

B13: CD19 ECD N term mutant#1-EGFR Fn3 (designed binder)
chain: PEEPLVVKVEEGDDAWLRCLKGTSDGPTSQVTWSRESPLKPFLKYSLGVPGLGVHIRPLAIGLVIPNVSQQMGGFYLCQPGPPSEKAWQPGWTVNVEGSGELFRWNVSDLGGLGCGLKNRSSEGPSSPSGKLMSPKLYVWAKDRPEIWEGEPPCLPPRDSLNQSLSQDLTMAPGSTLWLSCGVPPDSVSRGPLSWTHVHPKGPKSLLSLELKDDRPAREMIVDETGLLLPRATAQDAGKYYCHRGNRTISYHLEITARPVSAHTPLRTGGWKGGGGSGGGGSGGGGSGGGGSVSDVPRDLEVVAATPTSLLISWFDYAVTYYRITYGETGGNSPVQEFTVPGWISTATISGLKPGVDYTITVYAVTDNSHWPFRSTPISTNYRTEIDKPPQHHHHHH
notes: also called construct #227; CD19-Fn3/EGFR
With B13, the binding result in the assay with EGFR is reported as “binds”.

B14: CD19 mutant #2-G4Sx4-anti CLEC12a VHH 2F3-myc-His (VHH)
chain: PEEPLVVKVEEGDTAVLPCLKGTSDGPTQQLTWSRESPLKPFLKYSLGVPGLGVHVRPDAISVVIRNVSQQMGGFYLCQPGPPSEKAWQPGWTVNVEGSGELFRWNVSDLGGLGCGLKNRSSEGPSSPSGKLMSPKLYVWAKDRPEIWEGEPPCLPPRDSLNQSLSQDLTMAPGSTLWLSCGVPPDSVSRGPLSWTHVHPKGPKSLLSLELKDDRPAREMIVDETGLLLPRATAQDAGKWYCSRGNVTTSYHLEITARPVKAHSDLRTGGWKGGGGSGGGGSGGGGSGGGGSQVQLQAFGGGLVQPGGSLRLSCVVSGTMFSGKDVNWLRQAPGKHVEVVATVSSDGGTDYADFVKGRFTISRDDAKNTVNLQMNSLEPEDTANYMCHFLWGRHYWGQGTQVTVSSTSGPGGQGAEQKLISEEDLGAHHHHHHGAS
notes: CD19 variant-VHH fusion
For B14, the EC50 in the assay with Clec12A [2] came out at 0.173 µg/mL; in the assay with Clec12A [3], 3.76 nM.
